Data set [1] deals with PDGF-BB (human, UniProt P01127 82-190). As to the kind of experiment: FAM fluorescence recovery on GO array.
Data set [2] has as its target thrombin (human, UniProt P00734;P00734 328-363;364-622). As to the kind of experiment: FAM fluorescence recovery on GO array.

Sequence of PDGF-BB (P01127 82-190): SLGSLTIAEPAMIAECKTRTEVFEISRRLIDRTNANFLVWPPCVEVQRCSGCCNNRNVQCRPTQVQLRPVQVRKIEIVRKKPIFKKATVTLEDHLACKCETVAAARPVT

As to CAGGCTACGGCACGTAGAGCATCACCATGATCCTG (structured_DNA) [PDGF aptamer], the binding result in data set [1] is “binds”.
On to AGTCCGTGGTAGGGCAGGTTGGGGTGACT (structured_DNA) [thrombin aptamer (TASSET)], for which the binding result in data set [2] is listed as “binds”.

The record behind these values is article PMC3842537.
